Measurements taken from patent publication US9766240B2, “Method of identifying a compound for treating a hypoxic or ischemic related disorder” (Dana Farber Cancer Institute, Inc., priority 2001, dated 2017).
Square brackets hold non-standard residues; d marks the D form. Ends that are not written are not given here. Hyp = O=C(O)[C@@H]1C[C@@H](O)CN1

Legend:
[1] = target: T1, HIF bound to HA-pVHL (Homo sapiens, UniProt P40337); test: Peptide elution of HIF coimmunoprecipitated with HA-pVHL from ts20 cells; type: binding; conditions: 7 μg of peptide in 65 μl PBS
T1 construct: expressed in transfected cells; host or cells: ts20 cells stably transfected with pIRES-HA-VHL
T1 sequence (P40337 whole entry): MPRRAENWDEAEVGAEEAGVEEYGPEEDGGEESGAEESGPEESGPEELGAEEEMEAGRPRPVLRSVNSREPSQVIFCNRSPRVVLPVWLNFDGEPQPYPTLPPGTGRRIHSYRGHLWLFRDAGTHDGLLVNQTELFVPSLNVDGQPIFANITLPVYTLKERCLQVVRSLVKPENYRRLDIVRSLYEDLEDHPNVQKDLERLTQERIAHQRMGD
T1 sequence (P62869 whole entry partner): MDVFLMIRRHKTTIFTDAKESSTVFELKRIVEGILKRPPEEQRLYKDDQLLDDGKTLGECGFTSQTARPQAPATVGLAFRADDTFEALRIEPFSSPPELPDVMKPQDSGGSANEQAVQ
T1 sequence (P83940 whole entry partner): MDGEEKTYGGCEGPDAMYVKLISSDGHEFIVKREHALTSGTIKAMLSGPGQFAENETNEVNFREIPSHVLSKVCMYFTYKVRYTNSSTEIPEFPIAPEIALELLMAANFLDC
Procedure: Individual G418-resistant colonies were isolated using cloning cylinders and expanded. Cells producing HA-VHL or HA-VHL (Y98H) were identified by anti-HA immunoblot analysis. […] For the tests shown in FIG. 7C, ts20 cells were grown at the restrictive or permissive temperature for 14 hour, methionine-starved for 90 min, and then grown in the methionine-free media supplemented with ^35S-met ([…]) for 90 min.

[2] = target: T2, pVHL (Homo sapiens, UniProt P40337); test: Binding of 35S-labeled pVHL to immobilized biotinylated HIF (556-575) peptides; conditions: peptide on monomeric avidin Sepharose, autoradiography
T2 construct: made in house; host or cells: coupled in vitro transcription/translation (TNT kit, Promega)
T2 sequence (P40337 whole entry): as the sequence (P40337 whole entry) above

elution of HIF bound to HA-pVHL [1]	Substance	binding to pVHL [2]
not eluted	HIF (556-575) Pro564Ala peptide: HIF1α 556-575 peptide with Pro564 replaced by alanine (DLDLEMLAAYIPMDDDFQLR)	
	HIF (556-575) peptide with the Leu562Ala substitution and hydroxyproline at residue 564: HIF1α 556-575 peptide, Leu562Ala, hydroxyproline at 564 (DLDLEMAA[Hyp]YIPMDDDFQLR)	pVHL bound
